Test system: MS2 coat protein
Experiment: apparent KD of MS2 coat protein; designed switch direction (-1 OFF switch, 1 ON switch): -1; higher = weaker reporter binding
In short: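 For each design, the apparent KD is the median over clusters of curves fitted to normalised cluster fluorescence. Clusters held RNA switches with common flanks, transcribed on Illumina chips by stalled E. coli RNA polymerase. These were titrated with SNAP-549-labelled MS2 coat protein, doubling from 0.7 or 1.5 nM to 3 µM, without input, with 200 uM small-molecule ligand, or with an oligonucleotide input.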

[1] = Eterna round: R95, input ligand: microRNA oligo, concentration not stated
[2] = Eterna round: R95, input ligand: FMN 200 uM
[3] = Eterna round: R95, input ligand: none
[4] = input ligand: microRNA oligo, concentration not stated

Row | Sequence | apparent KD of MS2 coat protein (input ligand: FMN 200 uM) | apparent KD of MS2 coat protein (input ligand: none) | also measured
1 | CCGGAAGUAGAGGAUAUCGUAUCGGAUACGAUACGAGAAGGCUAUACAUGAGGAUCACCCAUGUGUCCUACCGG [Fiskers Ex 6 - 5] (puzzle: Exclusion 6) |  |  | apparent KD of MS2 coat protein [1]: 21.4 nM
2 | CCGGCCGCCGUGAGGAUAUGCCCGCGCGCCCGCGGGCAGAAGGCACAUGAGGAUCACCCAUGUCCCGCGGUCCC [salish99_bmx4_r4_123] (Eterna round: R97, puzzle: Brourd's mod of Exclusion 4) | 35.8 nM | 15.6 nM | 
3 | CCGGCUGCUGUGAGGAUAUGCCCGCGCGCCCGCGGGCAGAAGGCACAUGAGGAUCACCCAUGUCCUGCGGUCCC [salish99_bmx4_r4_120] (Eterna round: R97, puzzle: Brourd's mod of Exclusion 4) | 122 nM | 24.1 nM | 
4 | CCGGUAAAGGAGGAUAUAGGAGUCGAUAGACACCUAGAAGGCCUGACAUGAGGAUCACCCAUGUGUCCUACCGG [Fiskers Ex 6 - 93] (puzzle: Exclusion 6) |  |  | apparent KD of MS2 coat protein [2]: 23.7 nM; apparent KD of MS2 coat protein [1]: 14.1 nM; apparent KD of MS2 coat protein [3]: 13.5 nM
5 | CCGGUUGGCGCAGGAUAUACAUGAGGAUCACCCAUGUUCAUGAGGAUCACUCAUGAGUUUUUGUUGUAGAAGGGUGGCCCGGCC (Eterna round: R96, puzzle: Exclusion NG 2) | 1170 nM | 933 nM | apparent KD of MS2 coat protein [4]: 605 nM
6 | CCGUGAGGUAAUAAUCAGUACAUGAGGAUCACCCAUGUCAAGAAGUUGCUCGUCGGUCGGAAAUACGGACGACCCAU [Eternabot (Original) Solution 50] (Eterna round: R97, puzzle: Sensor, turn-off variant 1) | 19.1 nM | 17.9 nM | 
7 | CCGUGGCAAGGAUAUACAGAGGAGAGGAAGGCAAGAGGUGGACAUGAGGAUCACCCAUGUAGAAGGUGCAGAGC [JR_Exclu2_Sub026] (puzzle: Exclusion 2) |  |  | apparent KD of MS2 coat protein [2]: 130 nM; apparent KD of MS2 coat protein [1]: 124 nM; apparent KD of MS2 coat protein [3]: 160 nM
8 | CCUAAACAUGAGGAUCACCCAUGUGAGGAUAUGAUGCAGCAGUGGUCUACGCUGUGCAUCAGAAGGUACAUGGU (puzzle: Exclusion 1) |  |  | apparent KD of MS2 coat protein [1]: 73.4 nM
9 | CCUAGUUGGUAAGGAUAUCCUACACUAUUCUGACCCGUGCAAGCUACAUGAGGAUCACCCAUGUGGGAGAAGGUGCGUCAACGC [Design 11] (Eterna round: R96, puzzle: Exclusion NG 2) | 29.1 nM | 32.9 nM | apparent KD of MS2 coat protein [4]: 19.7 nM
10 | CCUAGUUGGUAAGGAUAUCCUACACUGUUCUGACCCGGGCAUGCUACAUGAGGAUCACCCAUGUGGGAGAAGGUGCGUCAACGC [Design 14] (Eterna round: R96, puzzle: Exclusion NG 2) | 36.8 nM | 30.6 nM | apparent KD of MS2 coat protein [4]: 19.3 nM
11 | CCUAGUUGGUAAGGAUAUCCUACAUUGUUCUGACCCGGGCAUGCUACAUGAGGAUCACCCAUGUGGGAGAAGGUGCGUCAUCGC [Design 16] (Eterna round: R96, puzzle: Exclusion NG 2) | 80.4 nM | 83.4 nM | apparent KD of MS2 coat protein [4]: 55.9 nM
12 | CCUCAGUGAGGAUAUCAGUAAUGUAAGACGUACAGUCGCACUGAGAAGGUACAUGAGGAUCACCCAUGUUAGUU [Eternabot (L1) Solution 50] (Eterna round: R97, puzzle: Exclusion 4) | 31.3 nM | 23 nM | 
13 | CCUCCACAUGAGGAUCACCCAUGUCAGGAUAUCGUGUGUGUUUUUUCGGUCUUUCGUGCGAGAAGGGACGUCUG (puzzle: Exclusion 1) |  |  | apparent KD of MS2 coat protein [1]: 45.6 nM
14 | CCUCCACAUGAGGAUCACCCAUGUCAGGAUAUCGUGUGUUUUUUUUCGGUCUUUCGUGCGAGAAGGGACGUCUU (puzzle: Exclusion 1) |  |  | apparent KD of MS2 coat protein [1]: 30.8 nM
15 | CCUCCGGUACGAGGAUAUCUGACGGCCGCCGGAGGAGAAGGCGUACAUGAGGAUCACCCAUGUCCAGCGUGCACCACGCUGGUU [Usbius] (Eterna round: R96, puzzle: Exclusion NG 1) | 119 nM | 44.9 nM | apparent KD of MS2 coat protein [4]: 38.1 nM
16 | CCUCUACAUGAGGAUCACCCAUGUCAGGAUAUGCGAAUUUCAUCAAAAGAUGAAAUUUGCAGAAGGGACUAAGC [Omei Ex1 A34] (Eterna round: R97, puzzle: Exclusion 1) | 282 nM | 246 nM | 
17 | CCUCUACAUGAGGAUCACCCAUGUGAGGAUAUCAAAGUCAGGGCGGCGCCCUGACUCAUGAGAAGGUGCAUGAA [EX1 A.16] (Eterna round: R97, puzzle: Exclusion 1) | 31.8 nM | 22.4 nM | 
18 | CCUCUACAUGAGGAUCACCCAUGUGAGGAUAUCUCGGAAAAGCCACUUAAGGUACUCCAGAGAAGGCACGUGUA [Rileed] (puzzle: Exclusion 1) |  |  | apparent KD of MS2 coat protein [1]: 15.2 nM

Row | Sequence | apparent KD of MS2 coat protein (input ligand: FMN 200 uM) | apparent KD of MS2 coat protein (input ligand: none) | also measured
19 | CCUCUACAUGAGGAUCACCCAUGUGAGGAUAUCUCGGAGCAGCCAAUUAAAGCGCUCCAGAGAAGGCACGUGUA [Inesraar] (puzzle: Exclusion 1) |  |  | apparent KD of MS2 coat protein [1]: 19.4 nM
20 | CCUCUACAUGAGGAUCACCCAUGUGAGGAUAUCUCGGAGCAGCCACUUAAGGCGCUCCAGAGAAGGCACGUGUA [Resogeorza] (puzzle: Exclusion 1) |  |  | apparent KD of MS2 coat protein [1]: 17.6 nM
21 | CCUCUGUAAGGAUAUACGGAGACGGCUGGAAUCAGUGGAAAGUAGAAGGUACAUGAGGAUCACCCAUGUGAGAC [Anceleso] (puzzle: Exclusion 4) |  |  | apparent KD of MS2 coat protein [1]: 20.2 nM
22 | CCUGAUCCACAGGAUAUGCUCAUCUAAUGAUGAGCAGAAGGGUGGACAUGAGGAUCACCCAUGUUUAUCAAUGG [Omei Ex6 D4] (Eterna round: R97, puzzle: Exclusion 6) | 804 nM | 125 nM | 
23 | CCUUAGUCACAGGAUAUGCUCAUCUAAUGAUGAGCAGAAGGGUGGACAUGAGGAUCACCCAUGUUUAUCAAGGG [Omei Ex6 E2] (Eterna round: R97, puzzle: Exclusion 6) | 249 nM | 348 nM | 
24 | CCUUAGUUAGGAUAUAUUAAGGCCUCUGUGAGCGCAGGGCAAUAGAAGGAACAUGAGGAUCACCCAUGUAUGGA [Eternabot (L2) Solution 98] (Eterna round: R97, puzzle: Exclusion 4) | 38.6 nM | 29.7 nM | 
25 | CGAGCCUAUGUAAGGAUAUCACAAUAAAACCAGUGUGAGAAGGUACAUGAGGAUCACCCAUGUUCACGACUGGC [BmEX4 A.26] (Eterna round: R97, puzzle: Brourd's mod of Exclusion 4) | 16.9 nM | 16.8 nM | 
26 | CGAGCUAGUGUGAGGAUAUACCUAUGGAUACAUAGGUAGAAGGCACAUGAGGAUCACCCAUGUCCUAUAGCUCG [jl-bmx4-4.56] (Eterna round: R97, puzzle: Brourd's mod of Exclusion 4) | 499 nM | 177 nM | 
27 | CGAUAAAGGUGAGGAUAUGAGAAUAGAAAGAAAUCAGAAGGCACACAUGAGGAUCACCCAUGUGAGUUCUUGAGAUUACAUGGU [Prohibition 44 - Jieux - Exclusion NG 1] (Eterna round: R96, puzzle: Exclusion NG 1) |  |  | apparent KD of MS2 coat protein [4]: 11 nM
28 | CGAUGAGCGGUGAGGAUAUCGUGUUCGAAAGAACGUGAGAAGGCACAUGAGGAUCACCCAUGUGAUCCUCAUCG [Omei Ex4B A34] (Eterna round: R97, puzzle: Brourd's mod of Exclusion 4) | 21.4 nM | 15.2 nM | 
29 | CGAUGCUCGUGUCCACAUGAGGAUCACCCAUGUCGAGUUAGCGAGGAUAUCGGUGACACAUAGUACGAGAAGGCGCGAACCUGA [Ex NG3 #26] (Eterna round: R96, puzzle: Exclusion NG 3) | 54.3 nM | 32.2 nM | apparent KD of MS2 coat protein [4]: 21 nM
30 | CGAUGUGGAGUGAGGAUAUCGUGUUCGAAAGAACGUGAGAAGGCACAUGAGGAUCACCCAUGUGAUUCACGUCG [Omei Ex4B A6] (Eterna round: R97, puzzle: Brourd's mod of Exclusion 4) | 28 nM | 15.6 nM | 
31 | CGCAAGUUAGGAUAUGACGCGAAUUUCCGGCUUUGGCCGGAUCAGAAGGAACUUGAGGAUCACCCAAGUGGCCG [Adia] (Eterna round: R97, puzzle: Exclusion 4) | 20.1 nM | 15.9 nM | 
32 | CGCAAUGGAGGAUAUACAUGAGGAUCACCCAUGUGGUCCUUGAGAUUCCAAAAGUCAAGUAGAAGGUCAGCGGC [Eternabot (L1) Solution 45] (Eterna round: R97, puzzle: Exclusion 3) | 1210 nM | 1600 nM | 
33 | CGCAGACGAGGAUAUAGAUGGAAUGACAUGAGGAUCACCCAUGUGAUCGAUCUAUUGGGUUUAGAAGGUGUCUGCG [JR_Ex5_Sub046] (Eterna round: R97, puzzle: Exclusion 5) | 14.4 nM | 15.2 nM | 
34 | CGCCUACAUGAGGAUCACCCAUGUGAGGAUAUCCUGCGAGGAUCAAAAGAUCCUCGUGGGAGAAGGCGCCUGGA [Omei Ex1 B6] (Eterna round: R97, puzzle: Exclusion 1) | 37.6 nM | 13.1 nM | 
35 | CGCCUACAUGAGGAUCACCCAUGUGAGGAUAUCCUGCGAGGAUCAAAAGAUCCUCGUGGGAGAAGGCGCUUGGA [Omei Ex1 B7] (Eterna round: R97, puzzle: Exclusion 1) | 18.7 nM | 19.4 nM | 
36 | CGCCUGGGAGGAUAUCCAAUAUAUGACAUGAGGAUCACCCAUGUUUCCACUCGUACCUCCGGAGAAGGCCCGGCGU [Ex5 #31] (Eterna round: R97, puzzle: Exclusion 5) | 21.7 nM | 26.7 nM | 
